Patent US20200024330A1

Legend:
Assay in all cases: cell-based or functional assay
[1] = target: HIV-1 Env of isolate MGRM-D-024 (HIV-1)
[2] = target: HIV-1 Env of isolate MGRM-G-019 (clade G pseudovirus) (HIV-1)
[3] = target: HIV-1 Env of isolate MGRM-A-010 (HIV-1)
[4] = target: HIV-1 Env of isolate MGRM-D-002 (clade D) (HIV-1)
[5] = target: HIV-1 JRCSF envelope glycoprotein (Env) (HIV-1) (UniProt P20871)
[6] = target: HIV-1 94UG103 envelope glycoprotein (Env) (HIV-1)
[7] = target: HIV-1 94UG103 envelope protein (Env) on pseudotyped virus (HIV-1 isolate 94UG103)
[8] = target: HIV-1 Env of isolate MGRM-A-003 (HIV-1)
[9] = target: HIV-1 IAVI_C22 envelope protein (Env) on pseudotyped virus (HIV-1 isolate IAVI C22)
[10] = target: HIV-1 MGRM-C-028 envelope glycoprotein (Env) on pseudovirus (HIV-1)
[11] = target: HIV-1 Env of isolate MGRM-D-003 (HIV-1)
[12] = target: HIV-1 MGRM-C-026 envelope glycoprotein (Env) (HIV-1)
[13] = target: HIV-1 Env of isolate MGRM-D-004 (HIV-1)
[14] = target: HIV-1 Env of isolate MGRM-A-011 (HIV-1)
[15] = target: HIV-1 Env of isolate 92UG046 (HIV-1)
[16] = target: HIV-1 Env of isolate MGRM-A-002 (HIV-1)
[17] = target: HIV-1 MGRM-C-028 Env (on pseudovirus) (HIV-1)
[18] = target: HIV-1 envelope glycoprotein (Env) of isolate MGRM-C-017, on pseudovirus (HIV-1)
[19] = target: HIV-1 envelope glycoprotein (Env) of isolate MGRM-C-023, on pseudovirus (HIV-1)
[20] = target: HIV-1 envelope glycoprotein (Env) of isolate MGRM-C-027, on pseudovirus (HIV-1)
[21] = target: HIV-1 MGRM-A-010 Env (on pseudovirus) (HIV-1)
[22] = target: HIV-1 92TH021 Env (on pseudovirus) (HIV-1)
[23] = target: HIV-1 MGRM-C-026 Env (on pseudovirus) (HIV-1)
[24] = target: HIV-1 envelope glycoprotein (Env) of isolate MGRM-C-026, on pseudovirus (HIV-1)
[25] = target: HIV-1 APV6 Env (on pseudovirus) (HIV-1)
[26] = target: HIV-1 MGRM-AG-005 Env (on pseudovirus) (HIV-1)
[27] = target: HIV-1 APV13 Env (on pseudovirus) (HIV-1)

Sequence of PGT-144 (4970_K22) (antibody) (VH): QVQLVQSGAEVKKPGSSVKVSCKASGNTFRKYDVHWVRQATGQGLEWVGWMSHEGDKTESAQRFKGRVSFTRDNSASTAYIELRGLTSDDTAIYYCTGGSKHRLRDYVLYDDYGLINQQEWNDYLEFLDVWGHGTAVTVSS
Sequence of PGT-144 (4970_K22) (antibody) (VL): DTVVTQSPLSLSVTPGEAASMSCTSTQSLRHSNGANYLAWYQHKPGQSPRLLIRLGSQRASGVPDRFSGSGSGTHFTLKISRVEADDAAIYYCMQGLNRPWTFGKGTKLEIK
Sequence of PGT-142 (4995_E20) (antibody) (VH): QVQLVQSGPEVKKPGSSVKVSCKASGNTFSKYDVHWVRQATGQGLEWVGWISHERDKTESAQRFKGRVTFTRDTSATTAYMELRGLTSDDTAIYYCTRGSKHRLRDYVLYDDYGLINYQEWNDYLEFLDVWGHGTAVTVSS
Sequence of PGT-142 (4995_E20) (antibody) (VL): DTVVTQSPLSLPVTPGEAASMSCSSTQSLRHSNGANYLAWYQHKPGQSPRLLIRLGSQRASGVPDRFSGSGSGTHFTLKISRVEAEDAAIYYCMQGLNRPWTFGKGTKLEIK
Sequence of PGT-141 (4964_G22; 4993_K13) (antibody) (VH): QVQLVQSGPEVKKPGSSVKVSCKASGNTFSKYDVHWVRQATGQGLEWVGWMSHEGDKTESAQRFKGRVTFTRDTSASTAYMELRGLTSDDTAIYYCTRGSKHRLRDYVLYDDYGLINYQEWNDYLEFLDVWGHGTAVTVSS
Sequence of PGT-143 (4980_N08) (antibody) (VH): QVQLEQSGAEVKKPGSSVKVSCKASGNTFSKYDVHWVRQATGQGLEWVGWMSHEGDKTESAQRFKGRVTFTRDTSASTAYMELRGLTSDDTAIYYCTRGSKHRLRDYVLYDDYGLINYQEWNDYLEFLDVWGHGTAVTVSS
Sequence of PGT-143 (4980_N08) (antibody) (VL): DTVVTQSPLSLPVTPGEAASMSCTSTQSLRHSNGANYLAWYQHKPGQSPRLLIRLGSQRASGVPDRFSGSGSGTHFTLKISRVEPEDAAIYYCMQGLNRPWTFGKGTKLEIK

1496_C09 (PG9) (TCN-109) (antibody)
IC50 (µg/mL), pseudovirus neutralization [1]: 0.038 µg/mL
IC50 (µg/ml), pseudovirus neutralization [2]: 0.67 µg/mL
IC50 (µg/mL), pseudovirus neutralization [3]: 0.022 µg/mL
IC50 (µg/ml), pseudovirus neutralization [4]: 0.027 µg/mL
IC50 neutralization [5]: 0.0048 µg/mL
IC50 (µg/ml), pseudovirus neutralization [6]: 0.24 µg/mL
IC50 neutralization [6]: 0.31 µg/mL
IC50, pseudovirus neutralization, 1 hour Virus/Ab Incubation [7]: 0.334 µg/mL
IC50, pseudovirus neutralization, 18 hour Virus/Ab Incubation [7]: 0.0942 µg/mL
IC50 [8]: 1.94 µg/mL
IC50, pseudovirus neutralization, 1 hour Virus/Ab Incubation [9]: 24.9 µg/mL
IC50, pseudovirus neutralization, 18 hour Virus/Ab Incubation [9]: 2.11 µg/mL
IC50 (ug/ml), neutralizing activity [10]: 0.121 µg/mL
IC50 neutralization [10]: 0.121 µg/mL
IC80, neutralization [10]: 0.645 µg/mL
IC90, neutralization [10]: 1.65 µg/mL
IC95, neutralization [10]: 3.71 µg/mL
IC50 (µg/mL), pseudovirus neutralization [11]: 0.033 µg/mL
IC50 neutralization [12]: 0.113 µg/mL
IC50 (µg/mL), pseudovirus neutralization [13]: 0.06 µg/mL
IC50 (µg/mL), pseudovirus neutralization [14]: 0.033 µg/mL
IC50 (µg/mL), pseudovirus neutralization [15]: 1.86 µg/mL

PGT-121 (antibody)
IC50 (µg/mL), pseudovirus neutralization [3]: 2.44 µg/mL
IC50 neutralization [5]: 0.0343 µg/mL
IC50 neutralization [6]: 1.38 µg/mL
IC50 (µg/mL), pseudovirus neutralization [8]: 0.435 µg/mL
IC50 neutralization [12]: 0.0034 µg/mL
IC50 (µg/mL), pseudovirus neutralization [14]: > 50 µg/mL
IC50 (µg/mL), pseudovirus neutralization [16]: 0.013 µg/mL

PGT-122 (antibody)
IC50 (µg/mL), pseudovirus neutralization [3]: 2.51 µg/mL
IC50 neutralization [5]: 0.0727 µg/mL
IC50 neutralization [6]: 1.46 µg/mL
IC50 (µg/mL), pseudovirus neutralization [8]: 3.79 µg/mL
IC50 neutralization [12]: 0.0089 µg/mL
IC50 (µg/mL), pseudovirus neutralization [14]: > 50 µg/mL
IC50 (µg/mL), pseudovirus neutralization [16]: 0.017 µg/mL

PGT-141 (4964_G22; 4993_K13) (antibody)
IC50 (ug/ml), pseudovirus neutralization [17]: 2.35 µg/mL
IC50, pseudovirus neutralization [18]: 4.02 µg/mL
IC50, pseudovirus neutralization [19]: 0.153 µg/mL
IC50, pseudovirus neutralization [20]: 3.27 µg/mL
IC50 (ug/ml), pseudovirus neutralization [21]: 0.0563 µg/mL
IC50 (ug/ml), pseudovirus neutralization [22]: 0.0019 µg/mL
IC50 (ug/ml), pseudovirus neutralization [23]: > 10 µg/mL
IC50, pseudovirus neutralization [24]: > 50 µg/mL
IC50 (ug/ml), pseudovirus neutralization [25]: 5.08 µg/mL
IC50 (ug/ml), pseudovirus neutralization [26]: 0.392 µg/mL
IC50 (ug/ml), pseudovirus neutralization [27]: > 10 µg/mL

PGT-142 (4995_E20) (antibody)
IC50 (ug/ml), pseudovirus neutralization [17]: 1.23 µg/mL
IC50, pseudovirus neutralization [18]: 1.11 µg/mL
IC50, pseudovirus neutralization [19]: 0.087 µg/mL
IC50, pseudovirus neutralization [20]: 0.792 µg/mL
IC50 (ug/ml), pseudovirus neutralization [21]: 0.0578 µg/mL
IC50 (ug/ml), pseudovirus neutralization [22]: 0.0022 µg/mL
IC50 (ug/ml), pseudovirus neutralization [23]: > 10 µg/mL
IC50, pseudovirus neutralization [24]: > 50 µg/mL
IC50 (ug/ml), pseudovirus neutralization [25]: 5.42 µg/mL
IC50 (ug/ml), pseudovirus neutralization [26]: 0.22 µg/mL
IC50 (ug/ml), pseudovirus neutralization [27]: > 10 µg/mL

PGT-143 (4980_N08) (antibody)
IC50 (ug/ml), pseudovirus neutralization [17]: 1.82 µg/mL
IC50, pseudovirus neutralization [18]: 5.17 µg/mL
IC50, pseudovirus neutralization [19]: 0.148 µg/mL
IC50, pseudovirus neutralization [20]: 0.598 µg/mL
IC50 (ug/ml), pseudovirus neutralization [21]: 0.0657 µg/mL
IC50 (ug/ml), pseudovirus neutralization [22]: 0.0028 µg/mL
IC50 (ug/ml), pseudovirus neutralization [23]: > 10 µg/mL
IC50, pseudovirus neutralization [24]: > 50 µg/mL
IC50 (ug/ml), pseudovirus neutralization [25]: 4.43 µg/mL
IC50 (ug/ml), pseudovirus neutralization [26]: 0.244 µg/mL
IC50 (ug/ml), pseudovirus neutralization [27]: > 10 µg/mL

PGT-144 (4970_K22) (antibody)
IC50 (ug/ml), pseudovirus neutralization [17]: > 10 µg/mL
IC50, pseudovirus neutralization [18]: 23 µg/mL
IC50, pseudovirus neutralization [19]: 0.38 µg/mL
IC50, pseudovirus neutralization [20]: > 50 µg/mL
IC50 (ug/ml), pseudovirus neutralization [21]: 4.02 µg/mL
IC50 (ug/ml), pseudovirus neutralization [22]: 0.0934 µg/mL
IC50 (ug/ml), pseudovirus neutralization [23]: > 10 µg/mL
IC50, pseudovirus neutralization [24]: > 50 µg/mL
IC50 (ug/ml), pseudovirus neutralization [25]: > 10 µg/mL
IC50 (ug/ml), pseudovirus neutralization [26]: > 10 µg/mL
IC50 (ug/ml), pseudovirus neutralization [27]: > 10 µg/mL

PGV04 (antibody)
IC50 (µg/mL), pseudovirus neutralization [1]: > 50 µg/mL
IC50 (µg/mL), pseudovirus neutralization [3]: 0.205 µg/mL
IC50 [8]: 0.128 µg/mL
IC50 (µg/mL), pseudovirus neutralization [11]: > 50 µg/mL
IC50 (µg/mL), pseudovirus neutralization [13]: 43.2 µg/mL
IC50 (µg/mL), pseudovirus neutralization [14]: 0.09 µg/mL
IC50 (µg/mL), pseudovirus neutralization [15]: 22.4 µg/mL
IC50 [16]: 0.093 µg/mL
